Results published in patent publication US20250277025A1.
Where a chain is given by its changes, count along the chain named.

B1: YL-G2-B (antibody, human IgG1, kappa)
heavy: EVQLQQSGPELEKPGASVKISCKASGYSFTGYKMNWVKQSNGKSLEWIGNIDPYYGGTTYNQKFKGKATLTVDKSSSTAYMQLKSLTSEDSAVYYCARYGKGNTMDYWGQGTSVTVSSASTKGPSVFPLAPSSKSTSGGTAALGCLVKDYFPEPVTVSWNSGALTSGVHTFPAVLQSSGLYSLSSVVTVPSSSLGTQTYICNVNHKPSNTKVDKRVEPKSCDKTHTCPPCPAPELVGGPSVFLLPPKPKDTLMISRTPEVTCVVVDVSHEDPEVKFNWYVDGVEVHNAKTKPPEEQYNSTLRVVSVLTVLHQDWLNGKEYKCKVSNKALPAPIEKTISKAKGQPREPQVYTLPPSREEMTKNQVSLTCLVKGFYPSDIAVEWESNGQPENNYKTTPLVLDSDGSFFLYSKLTVDKSRWQQGNVFSCSVMHEALHNHYTQKSLSLSPGK
light: DIVMTQSPSSLTVTAGEKVTMSCKSSQSLLNSGNQKNYLTWYQQRPGQPPKLLIYWASTRESGVPVRFTGSGSGTDFTLTISSVQAEDLAVYYCQNAYIYPLTFGTGTKLELKRTVAAPSVFIFPPSDEQLKSGTASVVCLLNNFYPREAKVQWKVDNALQSGNSQESVTEQDSKDSTYSLSSTLTLSKADYEKHKVYACEVTHQGLSSPVTKSFNRGEC
B2: YL-G2-D (antibody, human IgG1, kappa)
heavy: QLQQSGPELEKPGASVKISCKASGYSFTGYKMNWVKQSNGESLEWIGNIDPYYGDTTYTQKFKGKATFTVDTSSSTAYMQLKSLTSEDSAVYFCARYNRGNTMDYWGQGTSVTVSSASTKGPSVFPLAPSSKSTSGGTAALGCLVKDYFPEPVTVSWNSGALTSGVHTFPAVLQSSGLYSLSSVVTVPSSSLGTQTYICNVNHKPSNTKVDKRVEPKSCDKTHTCPPCPAPELVGGPSVFLLPPKPKDTLMISRTPEVTCVVVDVSHEDPEVKFNWYVDGVEVHNAKTKPPEEQYNSTLRVVSVLTVLHQDWLNGKEYKCKVSNKALPAPIEKTISKAKGQPREPQVYTLPPSREEMTKNQVSLTCLVKGFYPSDIAVEWESNGQPENNYKTTPLVLDSDGSFFLYSKLTVDKSRWQQGNVFSCSVMHEALHNHYTQKSLSLSPGK
light: B1 light with M21L, T75A, Y93F, I99F, K113R
B3: YL-G2-C (antibody, human IgG1, kappa)
heavy: QIQLVQSGPELRKPGETVKISCKASGFPFTTDGMSWVKQAPGKGLKWMGWINTYSGVPTYADDFKGRVAFSLETSASTAYLQIKNLKNEDTATYFCARFRRGNALDNWGQGTSVTVSSASTKGPSVFPLAPSSKSTSGGTAALGCLVKDYFPEPVTVSWNSGALTSGVHTFPAVLQSSGLYSLSSVVTVPSSSLGTQTYICNVNHKPSNTKVDKRVEPKSCDKTHTCPPCPAPELVGGPSVFLLPPKPKDTLMISRTPEVTCVVVDVSHEDPEVKFNWYVDGVEVHNAKTKPPEEQYNSTLRVVSVLTVLHQDWLNGKEYKCKVSNKALPAPIEKTISKAKGQPREPQVYTLPPSREEMTKNQVSLTCLVKGFYPSDIAVEWESNGQPENNYKTTPLVLDSDGSFFLYSKLTVDKSRWQQGNVFSCSVMHEALHNHYTQKSLSLSPGK
light: B1 light with R45K, V66D, V91I, A97N, I99F, T106A, K109R

Target: recombinant huCLDN18.2-Fc (Sino Biological, P/N: 20047-H02H) (human)
Test: KinExA 4000 equilibrium, antibody constant, recombinant huCLDN18.2-Fc titrated

| Binder | Kd |
| --- | --- |
| B1 | 1.7 nM |
| B2 | 6.4 nM |
| B3 | 3.8 nM |
